Patent publication US20090226370A1

Molecular target: RFP-fused mouse full length COMP expressed in RCS cells (pDsRed1-N1-COMP) (mouse) (UniProt Q9R0G6)
Assay: cell-based or functional assay

UniProt Q9R0G6, sequence (Q9R0G6 20-755): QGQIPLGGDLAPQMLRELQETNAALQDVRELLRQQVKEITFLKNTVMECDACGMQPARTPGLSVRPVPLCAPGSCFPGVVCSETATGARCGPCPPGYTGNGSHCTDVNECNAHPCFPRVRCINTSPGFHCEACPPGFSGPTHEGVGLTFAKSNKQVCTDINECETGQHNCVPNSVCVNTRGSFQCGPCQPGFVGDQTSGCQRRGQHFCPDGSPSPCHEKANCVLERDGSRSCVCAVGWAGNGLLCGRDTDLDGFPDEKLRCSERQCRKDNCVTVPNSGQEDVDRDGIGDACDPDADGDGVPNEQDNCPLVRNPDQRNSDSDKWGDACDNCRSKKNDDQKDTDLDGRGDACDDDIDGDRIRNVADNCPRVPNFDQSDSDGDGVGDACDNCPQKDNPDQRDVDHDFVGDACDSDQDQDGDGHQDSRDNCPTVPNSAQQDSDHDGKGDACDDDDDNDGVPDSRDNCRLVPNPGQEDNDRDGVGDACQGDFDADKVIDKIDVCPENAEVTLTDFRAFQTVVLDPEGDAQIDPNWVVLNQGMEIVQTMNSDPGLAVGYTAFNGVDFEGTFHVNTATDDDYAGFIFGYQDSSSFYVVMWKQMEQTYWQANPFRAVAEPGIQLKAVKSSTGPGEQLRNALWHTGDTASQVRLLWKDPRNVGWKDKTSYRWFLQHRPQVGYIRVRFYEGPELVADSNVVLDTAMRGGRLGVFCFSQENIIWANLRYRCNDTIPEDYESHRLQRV

GFP-linked GEP expressed in RCS cells (pEGFP-GEP) (ligand)
enhancement of GEP-mediated stimulation of RCS cell proliferation by coexpression of COMP, day 2 (viable cell count): 2.3 fold | enhancement of GEP-mediated stimulation of RCS cell proliferation by coexpression of COMP, day 3 (viable cell count): 2.1 fold | enhancement of GEP-mediated stimulation of RCS cell proliferation by coexpression of COMP, day 4 (viable cell count): 1.7 fold | enhancement of GEP-mediated stimulation of RCS cell proliferation by coexpression of COMP, day 5 (viable cell count): 1.5 fold
